Data from patent US20250213684A1, “COMBINATION THERAPIES COMPRISING ANTIBODY MOLECULES TO TIM-3” (Novartis AG, priority 2015, published 2025).

Key:
huTIM-3/his (human) [1] = molecular target: huTIM-3/his (human) (UniProt Q8TDQ0); assay: Biacore, 2nd antibody injection; 1st antibody (competitor) ABTIM3-hum11
huTIM-3/his (human) [2] = molecular target: huTIM-3/his (human) (UniProt Q8TDQ0); assay: Biacore, 2nd antibody injection; 1st antibody (competitor) ABTIM3-hum21
huTIM-3/his (human) [3] = molecular target: huTIM-3/his (human) (UniProt Q8TDQ0); assay: Biacore, 2nd antibody injection; 1st antibody (competitor) huIgG1
huTIM-3/his (human) [4] = molecular target: huTIM-3/his (human) (UniProt Q8TDQ0); assay: Biacore, 1st antibody injection on hTIM-3/his captured by anti-His antibody
huTIM-3/his (human) [5] = molecular target: huTIM-3/his (human) (UniProt Q8TDQ0); assay: Biacore, 2nd antibody injection; 1st antibody (competitor) ABTIM3-hum03

- change in RU (huTIM-3/his (human) [1]): 3.8 RU
- change in RU (huTIM-3/his (human) [2]): 4.5 RU
- change in RU (huTIM-3/his (human) [3]): 3.6 RU
- change in RU (huTIM-3/his (human) [4]): 0.27 RU
- change in RU (huTIM-3/his (human) [5]): 4.5 RU
Substance: human IgG1 isotype control (antibody)
